The values that follow come from paper PMC4201288.

The target of the data set is T1, PaFAN1 (Pseudomonas aeruginosa, UniProt Q9I2N0 1-559).
T1 sequence: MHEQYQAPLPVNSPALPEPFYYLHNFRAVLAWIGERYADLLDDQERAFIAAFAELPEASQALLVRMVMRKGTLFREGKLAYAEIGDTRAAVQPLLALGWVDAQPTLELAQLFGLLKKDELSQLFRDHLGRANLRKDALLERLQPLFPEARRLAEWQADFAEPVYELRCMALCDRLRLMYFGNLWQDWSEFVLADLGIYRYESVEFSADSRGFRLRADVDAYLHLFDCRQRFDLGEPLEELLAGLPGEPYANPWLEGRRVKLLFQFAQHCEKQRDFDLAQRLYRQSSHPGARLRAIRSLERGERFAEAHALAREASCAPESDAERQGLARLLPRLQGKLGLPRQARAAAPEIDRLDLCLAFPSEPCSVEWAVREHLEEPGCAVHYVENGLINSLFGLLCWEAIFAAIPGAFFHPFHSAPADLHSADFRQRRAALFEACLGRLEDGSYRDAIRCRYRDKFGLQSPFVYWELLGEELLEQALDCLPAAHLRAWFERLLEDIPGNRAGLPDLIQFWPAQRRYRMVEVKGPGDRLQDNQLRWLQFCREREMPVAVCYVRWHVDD
Kind of data set: crystal structure.

B1: 5' flap DNA, 22-base template, 4-nt 5' flap (crystal I) (structured_DNA)
DNA 1: GAATGTGTGTCTCAATCCCAAC
DNA 2: GTTGGGATTG
DNA 3: AACCAGACACACATTC
For B1, the binding result is on record as “binds”.
